From patent US9125896B2
Residue numbers refer to the chain shown, from its start. One block for each binder: values may come before it.

Assays:
[1] = biological target: human epidermal growth factor receptor (EGFR) (human) (UniProt P00533)
[2] = biological target: human epidermal growth factor receptor (EGFR) (human) (UniProt P00533); remark: listed apart in the source
[3] = biological target: human epidermal growth factor receptor (EGFR) (human) (UniProt P00533); remark: listed apart in the source

- EC50 (nM), H292 tumor cell growth inhibition (Example 11, WST-8) [1]: 2.59 nM
- EC50 (nM), inhibition of basal proliferation of NCI-H292 cells (WST-8, 5 days) [2]: 5.6 nM
- Maximal inhibition (%) of basal proliferation of NCI-H292 cells [2]: 65%
- EC50 (nM), inhibition of basal proliferation of HCC827 cells (WST-8, 5 days) [3]: 0.3 nM
- Maximal inhibition (%) of basal proliferation of HCC827 cells [3]: 72%
B1: muEGFR-6 (antibody, V domains shown)
VH: QVQLQQSGAELARPGASVKLSCKASGYTFTSYWMQWVKQRPGQGLECIGALYPGDGDARYTQKFKGKATLTADRSSSTAYMQLSSLASEDSAVYYCARYDAPGYAMDYWGQGTSVTVAS
VL: DIQMTQSPSSLSASLGGKVTITCKASQDINNYIAWYQHKPGKGPRLLIHYTSTLHPGIPSRFSGSGSGRDYSFSISNLEPEDIATYYCLQYDNLLYTFGGGTKLEIKR

- EC50 (nM), H292 tumor cell growth inhibition (Example 11, WST-8) [1]: 0.21 nM
- EC50 (nM), inhibition of basal proliferation of NCI-H292 cells (WST-8, 5 days) [2]: 0.4 nM
- Maximal inhibition (%) of basal proliferation of NCI-H292 cells [2]: 77%
- EC50 (nM), inhibition of basal proliferation of HCC827 cells (WST-8, 5 days) [3]: 0.03 nM
- Maximal inhibition (%) of basal proliferation of HCC827 cells [3]: 72%
B2: muEGFR-7 (antibody, V domains shown)
VH: B1 VH with A50T, L51I, A58T, R59T, R74K, A118S
VL: B1 VL with I33L
